Source: patent US20230391876A1 (HANALL BIOPHARMA, published 2023)

Assays:
[1] = biological target: T1, hFcRn on hFcRn-expressing HEK293 cells (human, UniProt P55899 24-365; P61769 21-119); experiment: FACS on hFcRn HEK293 cells, 10 nM antibody, pH 6.0
T1 construct: whole, on cells; also called hFcRn HEK293
Protocol: (§1) The analysis of hFcRn binding using FACS was carried out under two conditions of pH 6.0 and pH 7.4. hFcRn-expressing 1TEK293 (hFcRn HEK293) cells were diluted with the reaction buffer (0.0500 BSA in PBS, pH 6.0 or pH 7.4) and prepared in duplicate in a 96 well plate at 1×10⁵ cells for each sample. In addition, each antibody sample was diluted with the reaction buffer to 10 nM, and then put into a 96 well plate, and incubated at 4° C. for 90 minutes. Thereafter, the plate was centrifuged to remove the supernatant, and then Alexa488-goat anti-hIgG Ab (1:200) was added thereto, and again incubated at 4° C. for 90 minutes. After the reaction was completed, it was centrifuged to remove the supernatant, and 200 μL of the reaction buffer was added to resuspend the cell pellet, and then the MFI value was measured in a FACS instrument.

[2] = biological target: T2, shFcRn (soluble human FcRn) (human, UniProt P55899 24-297; P61769 21-119); experiment: SPR, hFcRn immobilized on chip, pH 7.4
T2 construct: extracellular domain; Printed only as 'soluble human FcRn'; also called hFcRn (immobilized on a chip)
Protocol: (§2) Kinetic analysis was performed using a 1:1 Langmuir binding model, and the average KD value was obtained by repeating the analysis 6 times in each condition of pH 6.0 and pH 7.4.
(§3) Chip activation was performed under EDAC/NHS 0.5×, 30 μL/min, and 300 sec conditions. Thereafter, shFcRn was prepared at 2 μg/mL, 250 μL using an acetate buffer (pH 5.5), and immobilization was performed while flowing at 30 μL/min. The reaction was stopped when the immobilization level corresponded to 200 RU to 300 RU. Thereafter, deactivation was performed using ethanolamine at 30 μL/min, 300 sec. […] Sample dilution was performed using 1×PBST (pH 7.4) or 1×PBST (pH 6.0) buffer depending on the analysis pH. In the sample analysis conditions, association was carried out by reaction at 50 μL/min, 200 sec, and dissociation was carried out by reaction at 50 μL/min, 600 sec. Thereafter, reaction was carried out using a glycine buffer (pH 2.0) at 100 μL/min, 18 sec to perform regeneration. For kinetic analysis, samples were prepared and reacted once in three cells to which shFcRn was immobilized. Then three kinetic values were obtained, and then an average KD value was measured. When analyzing reaction signals, interspot-referencing and signals in which only buffer was analyzed were used for a double-referencing.

[3] = biological target: T1, hFcRn on hFcRn-expressing HEK293 cells; experiment: FACS on hFcRn HEK293 cells, 10 nM antibody, pH 6.0, high concentration sample
Protocol: as §1

[4] = biological target: T2, shFcRn (soluble human FcRn); experiment: SPR, shFcRn immobilized on chip, antibody as analyte, pH 7.4;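 note: kinetics fitted with a 1:1 Langmuir model, association 200 s and dissociation 600 s in PBST, double-referenced against buffer-only and interspot signals, values averaged over repeated runs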
Protocol: as §2, §3

[5] = biological target: T1, hFcRn on hFcRn-expressing HEK293 cells; experiment: FACS on hFcRn HEK293 cells, 10 nM antibody, pH 7.4
Protocol: as §1

[6] = biological target: T1, hFcRn on hFcRn-expressing HEK293 cells; experiment: FACS on hFcRn HEK293 cells, 10 nM antibody, pH 7.4, high concentration sample
Protocol: as §1

[7] = biological target: T1, hFcRn on hFcRn-expressing HEK293 cells; experiment: FACS on hFcRn HEK293 cells, pH 6.0; head prints 'FACS binding (EC50, nM)', taken as blocking of competitor Alexa488-hIgG1 (Example 4.5)
Protocol: (§4) 1×10⁷ hFcRn HEK293 cells were seeded into a T75 flask and cultured for 24 hours. After culturing, the cells were removed and placed in a 96 well plate at 1×10⁵ cells for each sample in duplicate. […] After the reaction was completed, it was centrifuged to remove the supernatant. 200 μL of the reaction buffer was added to resuspend the cell pellet, and then the MFI value was measured in a FACS instrument.

[8] = biological target: T2, shFcRn (soluble human FcRn); experiment: SPR, shFcRn immobilized on chip, antibody as analyte, pH 6.0;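 note: kinetics fitted with a 1:1 Langmuir model, association 200 s and dissociation 600 s, samples diluted in PBST, double-referenced signals, values averaged across three shFcRn-coated cells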
Protocol: as §2, §3

[9] = biological target: T1, hFcRn on hFcRn-expressing HEK293 cells; experiment: FACS on hFcRn HEK293 cells, pH 6.0, high concentration sample; head prints 'FACS binding (EC50, nM)', taken as blocking of competitor Alexa488-hIgG1 (Example 5.5)
Protocol: as §4
The evaluation of hFcRn blocking was performed at 0.1 nM, 1 nM, 10 nM, and 100 nM using FACS.

[10] = biological target: T2, shFcRn (soluble human FcRn); experiment: SPR, hFcRn immobilized on chip, pH 6.0
Protocol: as §2, §3

T1 sequence (P55899 24-365 limits assumed, chain 1 of 2): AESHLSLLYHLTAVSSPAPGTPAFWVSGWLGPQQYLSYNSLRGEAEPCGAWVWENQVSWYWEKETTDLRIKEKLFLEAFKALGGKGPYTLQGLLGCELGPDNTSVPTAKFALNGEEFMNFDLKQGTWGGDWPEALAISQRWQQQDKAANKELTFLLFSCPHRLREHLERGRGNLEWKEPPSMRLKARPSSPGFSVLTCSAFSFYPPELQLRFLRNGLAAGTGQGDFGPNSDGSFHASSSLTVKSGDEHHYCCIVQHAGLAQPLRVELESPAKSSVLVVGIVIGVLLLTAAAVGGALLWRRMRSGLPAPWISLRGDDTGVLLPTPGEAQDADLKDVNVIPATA
T1 sequence (P61769 21-119 limits assumed, chain 2 of 2): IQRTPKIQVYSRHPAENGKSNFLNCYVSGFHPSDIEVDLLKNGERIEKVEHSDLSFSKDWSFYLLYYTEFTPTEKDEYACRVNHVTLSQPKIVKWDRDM
T2 sequence (P55899 24-297 limits assumed, chain 1 of 2): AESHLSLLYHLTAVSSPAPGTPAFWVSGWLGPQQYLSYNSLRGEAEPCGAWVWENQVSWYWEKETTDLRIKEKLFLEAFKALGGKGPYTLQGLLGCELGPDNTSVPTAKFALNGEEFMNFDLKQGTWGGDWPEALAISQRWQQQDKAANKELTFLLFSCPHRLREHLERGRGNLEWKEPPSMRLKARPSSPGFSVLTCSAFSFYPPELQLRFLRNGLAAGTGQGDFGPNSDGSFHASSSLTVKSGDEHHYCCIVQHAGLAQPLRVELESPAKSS
T2 sequence (P61769 21-119 limits assumed, chain 2 of 2): as the sequence (P61769 21-119 limits assumed, chain 2 of 2) above

Row | Binder | MFI [1] [MFI] | Kd [2] [nM] | MFI [3] [MFI] | Kd [4] [nM] | MFI [5] [MFI] | MFI [6] [MFI] | EC50 [7] [nM] | Kd [8] [nM] | EC50 [9] [nM] | koff [4] [s⁻¹] | kon [4] [M⁻¹ s⁻¹] | Kd [10] [nM] | koff [8] [s⁻¹] | kon [8] [M⁻¹ s⁻¹]
1 | HL161AN (antibody, human IgG1, V domains shown, also called HL161AN RS) VL: SYVLTQPPSVSVAPGQTARITCGGNNIGSTSVHWYQQKPGQAPVLVVHDDSDRPSGIPERFSGSNSGNTATLTISRVEAGDEADYYCQVRDSSSDHVIFGGGTKLTVLGQPKAAPSVTL VH: EVQLLESGGGLVQPGGSLRLSCAASEFTFGSCVMTWVRQAPGKGLEWVSVISGSGGSTYYADSVKGRFTISRDNSKNTLYLQMNSLRAEDTAVYYCAKTPWWLRSPFFDYWGQGTLVTVSS | 2720 | 0.27 | 2950 | 0.294 | 6150 | 7160 | 1.83 | 0.116 | 0.91 |  |  |  |  | 
2 | HL161AN variant No. 11 (LC:N25S, HC:C32Y Q82E) (antibody, V domains shown, also called HL161ANSYE; copies: 2 + 2) VL: SYVLTQPPSVSVAPGQTARITCGGSNIGSTSVHWYQQKPGQAPVLVVHDDSDRPSGIPERFSGSNSGNTATLTISRVEAGDEADYYCQVRDSSSDHVIFGGGTKLTVLGQPKAAPSVTL VH: not shown | 2580 | 0.28 | 3450 | 0.262 | 6320 | 6570 | 1.36 | 0.19 | 0.62 | 0.000487 | 1.86e+06 | 0.14 | 0.000486 | 2.56e+06
3 | HL161AN variant No. 19 (LC:N25Q, HC:C32S Q82E) (antibody, V domains shown, also called HL161ANQE; copies: 2 + 2) VL: SYVLTQPPSVSVAPGQTARITCGGQNIGSTSVHWYQQKPGQAPVLVVHDDSDRPSGIPERFSGSNSGNTATLTISRVEAGDEADYYCQVRDSSSDHVIFGGGTKLTVLGQPKAAPSVTL VH: not shown | 2640 | 0.36 | 3240 |  | 6470 | 7910 | 1.14 | 0.275 | 0.62 |  |  | 0.32 | 0.000575 | 2.09e+06
4 | HL161AN variant No. 2 (LC:N25S, HC:C32Y) (antibody, V domains shown, also called HL161ANSY; copies: 2 + 2) VL: SYVLTQPPSVSVAPGQTARITCGGSNIGSTSVHWYQQKPGQAPVLVVHDDSDRPSGIPERFSGSNSGNTATLTISRVEAGDEADYYCQVRDSSSDHVIFGGGTKLTVLGQPKAAPSVTL VH: not shown | 2500 | 0.2 | 3410 | 0.207 | 6200 | 7000 | 1.27 | 0.149 | 0.54 | 0.000435 | 2.1e+06 | 0.1 | 0.000433 | 2.91e+06
5 | HL161AN variant No. 12 (LC:N25Q, HC:C32S) (antibody, V domains shown, also called HL161ANQ; #12 (HL161ANQ)) VL: SYVLTQPPSVSVAPGQTARITCGGQNIGSTSVHWYQQKPGQAPVLVVHDDSDRPSGIPERFSGSNSGNTATLTISRVEAGDEADYYCQVRDSSSDHVIFGGGTKLTVLGQPKAAPSVTL VH: EVQLLESGGGLVQPGGSLRLSCAASEFTFGSSVMTWVRQAPGKGLEWVSVISGSGGSTYYADSVKGRFTISRDNSKNTLYLQMNSLRAEDTAVYYCAKTPWWLRSPFFDYWGQGTLVTVSS | 2770 | 0.21 | 3390 | 0.209 | 6940 | 7700 | 1.65 | 0.181 | 0.69 | 0.000499 | 2.38e+06 | 0.18 | 0.000549 | 3.02e+06
6 | HL161AN variant No. 13 (LC:N25Q, HC:C32Y) (antibody, V domains shown, also called HL161ANQY; copies: 2 + 2) VL: SYVLTQPPSVSVAPGQTARITCGGQNIGSTSVHWYQQKPGQAPVLVVHDDSDRPSGIPERFSGSNSGNTATLTISRVEAGDEADYYCQVRDSSSDHVIFGGGTKLTVLGQPKAAPSVTL VH: not shown | 2600 | 0.32 | 3330 | 0.236 | 6730 | 7940 | 1.38 | 0.2 | 0.66 | 0.000444 | 1.88e+06 | 0.21 | 0.000556 | 2.77e+06
7 | HL161AN variant No. 1 (LC:N25S, HC:C32S) (antibody, V domains shown, also called HL161ANS; #1 (HL161ANS)) VL: SYVLTQPPSVSVAPGQTARITCGGSNIGSTSVHWYQQKPGQAPVLVVHDDSDRPSGIPERFSGSNSGNTATLTISRVEAGDEADYYCQVRDSSSDHVIFGGGTKLTVLGQPKAAPSVTL VH: EVQLLESGGGLVQPGGSLRLSCAASEFTFGSSVMTWVRQAPGKGLEWVSVISGSGGSTYYADSVKGRFTISRDNSKNTLYLQMNSLRAEDTAVYYCAKTPWWLRSPFFDYWGQGTLVTVSS | 2720 | 0.12 | 3270 | 0.122 | 6460 | 6730 | 1.44 | 0.129 | 0.69 | 0.000392 | 3.22e+06 | 0.12 | 0.000463 | 3.58e+06
8 | HL161AN variant No. 18 (LC:N25Q, HC:C32S Q82T) (antibody, human IgG1, V domains shown, Variable domains only) VL: SYVLTQPPSVSVAPGQTARITCGGQNIGSTSVHWYQQKPGQAPVLVVHDDSDRPSGIPERFSGSNSGNTATLTISRVEAGDEADYYCQVRDSSSDHVIFGGGTKLTVLGQPKAAPSVTL VH: EVQLLESGGGLVQPGGSLRLSCAASEFTFGSSVMTWVRQAPGKGLEWVSVISGSGGSTYYADSVKGRFTISRDNSKNTLYLTMNSLRAEDTAVYYCAKTPWWLRSPFFDYWGQGTLVTVSS | 2520 | 0.33 |  | 0.226 | 6910 |  | 1.15 | 0.198 |  | 0.000542 | 2.39e+06 | 0.25 | 0.000562 | 2.84e+06
9 | HL161AN variant No. 20 (LC:N25Q, HC:C32Y Q82S) (antibody, human IgG1, V domains shown, Variable domains only) VL: SYVLTQPPSVSVAPGQTARITCGGQNIGSTSVHWYQQKPGQAPVLVVHDDSDRPSGIPERFSGSNSGNTATLTISRVEAGDEADYYCQVRDSSSDHVIFGGGTKLTVLGQPKAAPSVTL VH: EVQLLESGGGLVQPGGSLRLSCAASEFTFGSYVMTWVRQAPGKGLEWVSVISGSGGSTYYADSVKGRFTISRDNSKNTLYLSMNSLRAEDTAVYYCAKTPWWLRSPFFDYWGQGTLVTVSS | 2520 | 0.35 |  | 0.283 | 5840 |  | 1.16 | 0.2 |  | 0.00056 | 1.98e+06 | 0.17 | 0.000509 | 2.54e+06
10 | HL161AN variant No. 8 (LC:N25S, HC:C32S Q82E) (antibody, V domains shown, also called HL161ANSE; copies: 2 + 2) VL: SYVLTQPPSVSVAPGQTARITCGGSNIGSTSVHWYQQKPGQAPVLVVHDDSDRPSGIPERFSGSNSGNTATLTISRVEAGDEADYYCQVRDSSSDHVIFGGGTKLTVLGQPKAAPSVTL VH: not shown | 2830 | 0.28 | 3130 | 0.218 | 6760 | 7060 | 1.47 | 0.158 | 0.6 | 0.000496 | 2.27e+06 | 0.14 | 0.000477 | 3.02e+06
11 | HL161AN variant No. 22 (LC:N25Q, HC:C32Y Q82E) (antibody, V domains shown, also called HL161ANQYE; copies: 2 + 2) VL: SYVLTQPPSVSVAPGQTARITCGGQNIGSTSVHWYQQKPGQAPVLVVHDDSDRPSGIPERFSGSNSGNTATLTISRVEAGDEADYYCQVRDSSSDHVIFGGGTKLTVLGQPKAAPSVTL VH: not shown | 2390 | 0.3 | 3020 | 0.381 | 5860 | 7080 | 1.3 | 0.264 | 0.71 | 0.000647 | 1.7e+06 | 0.21 | 0.000522 | 1.98e+06
12 | HL161AN variant No. 21 (LC:N25Q, HC:C32Y Q82T) (antibody, human IgG1, V domains shown, Variable domains only) VL: SYVLTQPPSVSVAPGQTARITCGGQNIGSTSVHWYQQKPGQAPVLVVHDDSDRPSGIPERFSGSNSGNTATLTISRVEAGDEADYYCQVRDSSSDHVIFGGGTKLTVLGQPKAAPSVTL VH: EVQLLESGGGLVQPGGSLRLSCAASEFTFGSYVMTWVRQAPGKGLEWVSVISGSGGSTYYADSVKGRFTISRDNSKNTLYLTMNSLRAEDTAVYYCAKTPWWLRSPFFDYWGQGTLVTVSS | 2430 | 0.3 |  | 0.209 | 6030 |  | 1.11 | 0.206 |  | 0.000499 | 2.39e+06 | 0.18 | 0.000552 | 2.67e+06
